# Values quoted from earlier work, collected in paper PMC6156988.
# Biological target: EspFu (Escherichia coli) (UniProt P0DJ88)
# Sequence of UniProt P0DJ88 (P0DJ88 whole entry): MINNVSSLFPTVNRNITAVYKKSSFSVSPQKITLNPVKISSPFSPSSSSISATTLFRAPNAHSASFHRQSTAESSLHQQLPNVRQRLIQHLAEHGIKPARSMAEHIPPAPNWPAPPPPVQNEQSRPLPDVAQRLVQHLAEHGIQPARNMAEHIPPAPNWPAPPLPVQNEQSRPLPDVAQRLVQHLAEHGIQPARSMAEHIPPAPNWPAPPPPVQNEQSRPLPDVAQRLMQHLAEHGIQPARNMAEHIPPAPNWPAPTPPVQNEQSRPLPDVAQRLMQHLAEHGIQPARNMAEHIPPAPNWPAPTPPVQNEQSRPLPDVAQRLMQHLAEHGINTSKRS
substance,measurement,value
IRTKS SH3 (from UniProt Q9UHR4),Kd,500 nM
